Data: patent EP1514558A1 (Max-Planck-Gesellschaft zur Förderung der Wissenschaften …, dated 2005)

Target: HA-tagged MARK2, baculovirus-expressed in Sf9 cells (Rattus norvegicus (Rat), UniProt O08679 1-722)
Assay: cell-based or functional assay

Chain of HA-tagged MARK2, baculovirus-expressed in Sf9 cells (O08679 other isoform, or with tags, fused parts or gaps limits assumed, form in doubt): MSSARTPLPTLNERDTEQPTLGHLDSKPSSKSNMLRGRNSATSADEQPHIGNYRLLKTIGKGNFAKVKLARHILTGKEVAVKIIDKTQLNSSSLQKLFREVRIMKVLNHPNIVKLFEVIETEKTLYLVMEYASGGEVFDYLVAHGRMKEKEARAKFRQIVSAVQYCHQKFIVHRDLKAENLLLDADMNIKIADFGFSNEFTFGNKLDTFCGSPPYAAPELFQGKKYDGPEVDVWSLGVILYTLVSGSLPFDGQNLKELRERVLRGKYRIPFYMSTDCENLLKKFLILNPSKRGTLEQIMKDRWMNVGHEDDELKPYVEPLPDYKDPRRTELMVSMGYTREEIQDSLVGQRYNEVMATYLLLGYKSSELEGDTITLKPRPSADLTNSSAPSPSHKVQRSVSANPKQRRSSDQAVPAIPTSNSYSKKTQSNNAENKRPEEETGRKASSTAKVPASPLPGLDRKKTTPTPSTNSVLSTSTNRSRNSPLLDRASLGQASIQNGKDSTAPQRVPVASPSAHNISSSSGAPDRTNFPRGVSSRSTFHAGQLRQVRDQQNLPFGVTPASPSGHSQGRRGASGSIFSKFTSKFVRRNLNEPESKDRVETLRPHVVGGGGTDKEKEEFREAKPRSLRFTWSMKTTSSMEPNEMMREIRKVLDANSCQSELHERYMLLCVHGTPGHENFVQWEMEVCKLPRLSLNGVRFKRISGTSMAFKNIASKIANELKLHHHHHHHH

B1: myc-tagged MARKK, baculovirus-expressed in Sf9 cells (enzyme, not shown: small tags and cut ends)
chain: MGHHHHHHHHHHSSGHIEGRHMPSTNRAGSLKDPEIAELFFKEDPEKLFTDLREIGHGSFGAVYFARDVRTNEVVAIKKMSYSGKQSTEKWQDIIKEVKFLQRIKHPNSIEYKGCYLREHTAWLVMEYCLGSASDLLEVHKKPLQEVEIAAITHGALQGLAYLHSHTMIHRDIKAGNILLTEPGQVKLADFGSASMASPANSFVGTPYWMAPEVILAMDEGQYDGKVDVWSLGITCIELAERKPPLFNMNAMSALYHIAQNESPTLQSNEWSDYFRNFVDSCLQKIPQDRPTSEELLKHMFVLRERPETVLIDLIQRTKDAVRELDNLQYRKMKKLLFQEAHNGPAVEAQEEEEEQDHGGGRTGTVNSVGSNQSIPSMSISASSQSSSVNSLPDASDDKSELDMMEGDHTVMSNSSVIHLKPEEENYQEEGDPRTRASDPQSPPQVSRHKSHYRNREHFATIRTASLVTRQMQEHEQDSELREQMSGYKRMRRQHQKQLMTLENKLKAEMDEHRLRLDKDLETQRNNFAAEMEKLIKKHQASMEKEAKVMANEEKKFQQHIQAQQKKELNSFLESQKREYKLRKEQLKEELNENQSTPKKEKQEWLSKQKENIQHFQAEEEANLLRRQRQYLELECRRFKRRMLLGRHNLEQDLVREELNKRQTQKDLEHAMLLRQHESMQELEFRHLNTIQKMRCELIRLQHQTELTNQLEYNKRRERELRRKHVMEVRQQPKSLKSKELQIKKQFQDTCKIQTRQYKALRNHLLETTPKSEHKAVLKRLKEEQTRKLAILAEQYDHSINEMLSTQALRLDEAQEAECQVLKMQLQQELELLNAYQSKIKMQAEAQHDRELRELEQRVSLRRALLEQKIEEEMLALQNERTERIRSLLERQAREIEAFDSESMRLGFSNMVLSNLSPEAFSHSYPGASSWSHNPTGGSGPHWGHPMGGTPQAWGHPMQGGPQPWGHPSGPMQGVPRGSSIGVRNSPQALRRTASGGRTEQGMSRSTSVTSQISNGSHMSYT
activity of immunoprecipitated MARK2 (phosphorylation of TR1) on co-expression in Sf9 cells: ~3 fold
